The results in this text go back to US11643691B2, “Predictive biomarkers for cancer immunotherapy and methods of using same” (Duke University, priority 2018, dated 2023).

Test [1] deals with DCs. Kind of test: Flow cytometry of DC surface maturation markers. The class given is cell-based, Murine. How it is done: Flow Cytometry: One million cells were stained with 1 μg per million cells of each fluorochrome conjugated antibodies or commercially available dyes according to the standard protocols and analyzed using a FACSCanto II or LSRII (Becton Dickinson).
For orientation: Flow cytometry measures light scatter and fluorescence of single cells or particles in a stream.

The subject of test [2] is DCs. Kind of test: qRT-PCR / qPCR array / immunoblot gene expression in DCs. Type of test: cell-based, Murine. On the procedure: Dendritic Cell Conditioning: DCs were treated with Wnt3a (100 ng/mL), Wnt5a (200 ng/mL), LPS (1 μg/mL), 1-MT (1 mM), 2DG (1 mM), or ETO (100 μM), 2-DG(2-deoxy-d-glucose, 1 mM), Oligomycin (1 μM), succinylacetone (250 μM), […]
Antibodies, Immunoprecipitation, and Immunoblot Analysis: Primary antibodies including CPT1A (Cell signaling), PPAR-γ (Santa Cruz Biotechnology), β-catenin, β-actin (Millipore), p-AMPK(T172)/AMPK (Cell signaling), p-AKT(T308)/Akt (Cell Signaling) were used at 1:1000. Secondary antibodies including goat anti-rabbit IgG-HRP (Millipore) and goat anti-mouse IgG-HRP (Millipore) were used at 1:5000. Cells were lysed in Laemmli sample buffer after treatment and subjected to SDS-polyacrylamide gel electrophoresis and immunoblot analysis. For immunoprecipitation, cells were lysed in radio immunoprecipitation assay (RIPA) buffer [10 mM sodium phosphate (pH 8.0), 150 mM NaCl, 1% Triton X-100, 1% sodium deoxycholate, and 0.1% SDS in the presence of 1 mM DTT, 1 mM phenylmethylsulfonylfluoride, and a protease inhibitor cocktail (Sigma)], precleared with protein A beads, and then incubated with 1 μg of antibody against β-catenin or isotype control IgG with protein A-agarose beads on a rotator overnight at 4° C. After 3 washes with RIPA buffer, immunoprecipitated complexes were eluted in sample buffer by boiling and subjected to immunoblot analysis. Immunoblots were visualized by chemiluminescence substrate (ThermoFisher) and imaged by a ChemiDoc XRSplus system (BioRad).
RNA Isolation, RT-qPCR, qPCR Array: Total RNA was isolated by RNeasy Plus Mini Kit(Qiagen). RNA(500 ng) were used in cDNA Synthesis (iScript, BioRad). Quantification of mRNA for genes involved in PPARγ signaling was performed using Mouse PrimePCR PPAR Array according to the manufacturer's protocol (BioRad). Real-time PCR was performed using an ABI7500 Real-Time PCR system (Life Technologies). Data analysis utilized the PrimePCR Analysis Software (BioRad). Conventional qPCR was performed using validated primers, and SsoAdvanced Universal SYBR Green Super mix (BioRad) or Taqman probes (Applied Biosystems) for heme synthesis enzymes.
For orientation: Real-time PCR tracks product formation cycle by cycle.

The next test relates to CD4+FoxP3+ Treg cells. Kind of test: In vitro Treg cell assay (conditioned DCs with naive CD4+ T cells). Type of test: cell-based, mice. The note with it: treated DCs co-cultured with naive CD4+ T cells. On the procedure:
Dendritic Cell Conditioning: DCs were treated with Wnt3a (100 ng/mL), Wnt5a (200 ng/mL), LPS (1 μg/mL), 1-MT (1 mM), 2DG (1 mM), or ETO (100 μM), 2-DG(2-deoxy-d-glucose, 1 mM), Oligomycin (1 μM), succinylacetone (250 μM), or vehicle control either for 24 or 48 hrs prior to their use in both in vitro and in vivo experiments.
Treg Cell Assays: For in vivo Treg cell assays, DCs (C57, H-2b) were pre-treated for 48 hours and delivered by intradermal injection into the footpad of Foxp3-mRFP mice. Draining inguinal and popliteal lymph nodes were resected 5 days later and analyzed for CD4+Foxp3+ Treg cells. For in vitro Treg cell assays, DCs (Balb/c, H-2d) were pre-treated for either 24 or 48 hrs, and re-plated at a 1:3 DC:T-cell ratio with purified allogeneic naive Foxp3-mRFP(H-2b) CD44loCD62LhiCD4+ Tcells. These co-cultures were incubated for 6 days and quantitated for CD4+FoxP3+ Treg cells by flow cytometry.

Test [3] concerns CD8+ T cell proliferation. Kind of test: T cell proliferation assay (CellTrace Violet dilution, OT-1 splenocytes with conditioned DCs). The class given is cell-based, mice. The note with it: DCs pre-treated, LPS stimulated. How it is done:
T Cell Proliferation Assay: Splenocytes of OT-1 mice (H-2b) were isolated and stained with CellTrace Violet (ThermoFisher). Preconditioned DCs were loaded with ovalbumin peptide SIINFEKL, and co-cultured at a DC:splenocyte ratio of 40,000:120,000 cells for 72 hrs. CD8+ T cell proliferation was measured by the dilution of Cell Trace Violet dye by flow cytometry.

B1: Wnt5a: Recombinant Human/Mouse Wnt5a Protein (R&D Systems) (protein, UniProt P41221 62-380, looked up)
Protein Wnt-5a: IIGAQPLCSQLAGLSQGQKKLCHLYQDHMQYIGEGAKTGIKECQYQFRHRRWNCSTVDNTSVFGRVMQIGSRETAFTYAVSAAGVVNAMSRACREGELSTCGCSRAARPKDLPRDWLWGGCGDNIDYGYRFAKEFVDARERERIHAKGSYESARILMNLHNNEAGRRTVYNLADVACKCHGVSGSCSLKTCWLQLADFRKVGDALKEKYDSAAAMRLNSRGKLVQVNSRFNSPTTQDLVYIDPSPDYCVRNESTGSLGTQGRLCNKTSEGMDGCELMCCGRGYDQFKTVQTERCHCKFHWCCYVKCKKCTEIVDQFVCK
For B1, in the test with DCs [1], the “DC surface maturation markers / co-stimulatory receptors” value is listed as “absence of any alterations in DC surface maturation markers”. In the test with DCs [2] (qRT-PCR), the “IL-6 and IL-12 expression in primary DCs” value is “suppresses IL-6 and IL-12 expression in primary DCs”; the “expression of Alas1 and further enzymes of PpIX synthesis” value was “upregulated expression of Alas1 and several additional enzymes involved in PpIX synthesis”; the “expression of TCA cycle enzymes (Idh1, Idh2, Oghd, Dld, Dlst)” value is “stimulated the expression of isocitrate dehydrogenase”. In addition, in the test on DCs [2] (qRT-PCR, after 4-8 hr of stimulation), the “expression of hexokinase (Hk) and phosphofructokinase-1 (Pfk1)” value is on record as “downregulated the expression of the rate-limiting glycolytic enzymes”. In the test on DCs [2] (real-time qPCR and immunoblot, murine and human DCs for rWnt5a), the “PPAR-γ (Pparg) and CPT1A (Cpt1a) expression” value was “induces upregulation of Pparg and Cpt1a”. Further, the “DC-mediated Treg cell differentiation in vitro” value in the test on CD4+FoxP3+ Treg cells was “enhanced Treg cell differentiation in vitro”. Further, in test [3], the “LPS-induced DC-mediated antigen-specific T cell proliferation” value is listed as “suppresses LPS-induced DC-mediated antigen-specific T cell proliferation”.
